The results in this text go back to patent publication US20200255846A1 (INSTITUTE OF GENETICS AND DEVELOPMENTAL BIOLOGY CHINESE …, published 2020).

This experiment deals with nYFP-OsCaM1-1 (rice calmodulin OsCaM1-1 fused with the N-terminal fragment of YFP) (rice, UniProt Q0JNS6 1-149). Put plainly: BiFC, nYFP-OsCaM1-1 and cYFP-GSE5 coexpressed in N. benthamiana leaves. An excerpt:
The coding sequence of GSE5 were amplified by specific primers ycGSE5-F/R, fused with the C-terminal fragment of YFP (cYFP), and then subcloned into the pGWB414 vector (Invitrogen) using in-fusion enzyme (Genebank Biosciences Inc, China). The N-terminal fragment of YFP (nYFP) was amplified from pSY736 using the primers YN-736-F and YN-736-R, fused with the OsCaM1-1 gene, and then subcloned into the pGWB414 vector (Invitrogen) using in-fusion enzyme (Genebank Biosciences Inc, China). nYFP-OsCaM1-1 and cYFP-GSE5 constructs were transformed into Agrobacterium strains GV3101. Transient expression of nYFP-OsCaM1-1 and cYFP-GSE5 in Nicotiana benthamiana leaves and fluorescence observation were conducted as described previously (Wang et al., 2016).

B1: cYFP-GSE5 (GSE5, GRAIN SIZE ON CHROMOSOME 5, fused with the C-terminal fragment of YFP) (other)
chain: MGKAARWFRNMWGGGRKEQKGEAPASGGKRWSFGKSSRDSAEAAAAAAAAAAEASGGNAAIARAAEAAWLRSVYADTEREQSKHAIAVAAATAAAADAAVAAAQAAVAVVRLTSKGRSAPVLAATVAGDTRSLAAAAVRIQTAFRGFLAKKALRALKALVKLQALVRGYLVRRQAAATLQSMQALVRAQATVRAHRSGAGAAANLPHLHHAPFWPRRSLQERCAGDDTRSEHGVAAYSRRLSASIESSSYGYDRSPKIVEVDTGRPKSRSSSSRRASSPLLLDAAGCASGGEDWCANSMSSPLPCYLPGGAPPPRIAVPTSRHFPDYDWCALEKARPATAQSTPRYAHAPPTPTKSVCGGGGGGGIHSSPLNCPNYMSNTQSFEAKVRSQSAPKQRPETGGAGAGGGRKRVPLSEVVVVESRASLSGVGMQRSCNRVQEAFNFKTAVVGRLDRSSESGENDRHAFLQRRW
notes: BiFC construct in pGWB414, transiently expressed inside Nicotiana benthamiana leaf cells (not on the cell surface); not shown: C-terminal fragment of YFP (cYFP)
Consider B1, for which the binding result is given as “binds”.
